Test results from patent US20200340991A1.
One block for each substance: values may come before it.

Biological target: chimeric TSH receptor (chimeric MC4 receptor) expressed on CHO-MC4 cells (human/rat chimera) (UniProt P16473)
Experiment: cell-based or functional assay

Sequence of thyroid blocking monoclonal antibody K1-70 (VH): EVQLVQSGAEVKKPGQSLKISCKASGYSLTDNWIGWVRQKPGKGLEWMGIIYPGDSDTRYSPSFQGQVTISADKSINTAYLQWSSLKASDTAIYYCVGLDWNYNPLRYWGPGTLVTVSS
Sequence of thyroid blocking monoclonal antibody K1-70 (VL): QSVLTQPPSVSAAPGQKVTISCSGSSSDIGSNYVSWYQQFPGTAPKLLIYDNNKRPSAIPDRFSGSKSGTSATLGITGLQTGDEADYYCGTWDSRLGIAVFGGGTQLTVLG

% inhibition, TBI assay, 2.5 ng K1-70 (TBI positive): 86% | % inhibition, TBI assay, K1-70 0.0025 ng/ml: -6% | % inhibition, TBI assay, K1-70 0.1 ng/ml: 6% | % inhibition, TBI assay, K1-70 0.4 ng/ml: 25% | % inhibition, TBI assay, K1-70 0.6 ng/ml: 27% | % inhibition, TBI assay, K1-70 1 ng/ml: 38% | % inhibition, TBI assay, K1-70 1.5 ng/ml: 55% | % inhibition, TBI assay, K1-70 1.56 ng/ml: 60% | % inhibition, TBI assay, K1-70 5 ng/ml: 102% | % inhibition, TBI assay, K1-70 10 ng/ml: 114% | % inhibition, TBI assay, K1-70 12.5 ng/ml: 104% | % inhibition, TBI assay, K1-70 25 ng/ml: 104% | % inhibition, TBI assay, K1-70 50 ng/ml: 103% | % inhibition, TBI assay, K1-70 100 ng/ml: 101% | % inhibition, TBI assay, K1-70 only 100% (5 ng/ml K1-70): 94% | % inhibition, TBI assay, mixture M22:K1-70 10:90: 77% | % inhibition, TBI assay, mixture M22:K1-70 20:80: 51% | % inhibition, TBI assay, mixture M22:K1-70 30:70: 27% | % inhibition, TBI assay, mixture M22:K1-70 50:50: -37% | % inhibition, TBI assay, mixture M22:K1-70 60:40: -59% | % inhibition, TBI assay, mixture M22:K1-70 90:10: -98% | IC50, TBI bioassay: 1.34 ng/mL | IC50 of TBI assay with CHO-MC4 cells: 1.34 ng/mL | RLU, TBI assay, 2.5 ng K1-70 (TBI positive): 5530 RLU | RLU, TBI assay, 2.5 ng K1-70 with FSH 116.3 mIU/ml: 6100 RLU | RLU, TBI assay, 2.5 ng K1-70 with FSH 232.6 mIU/ml: 5810 RLU | RLU, TBI assay, 2.5 ng K1-70 with LH 20 mIU/ml: 6100 RLU | RLU, TBI assay, 2.5 ng K1-70 with LH 40 mIU/ml: 5770 RLU | RLU, TBI assay, 2.5 ng K1-70 with hCG 8000 mIU/ml: 6000 RLU | RLU, TBI assay, 2.5 ng K1-70 with hCG 16000 mIU/ml: 5950 RLU | RLU, TBI assay, K1-70 0.0025 ng/ml: 16400 RLU | RLU, TBI assay, K1-70 0.05 ng/ml: 15700 RLU | RLU, TBI assay, K1-70 0.1 ng/ml: 13600 RLU | RLU, TBI assay, K1-70 0.2 ng/ml: 14100 RLU | RLU, TBI assay, K1-70 0.4 ng/ml: 12800 RLU | RLU, TBI assay, K1-70 0.6 ng/ml: 12600 RLU | RLU, TBI assay, K1-70 0.8 ng/ml: 12700 RLU | RLU, TBI assay, K1-70 1 ng/ml: 11300 RLU | RLU, TBI assay, K1-70 1.5 ng/ml: 9420 RLU | RLU, TBI assay, K1-70 2 ng/ml: 7940 RLU | RLU, TBI assay, K1-70 2.5 ng/ml: 6620 RLU | RLU, TBI assay, K1-70 5 ng/ml: 4010 RLU | RLU, TBI assay, K1-70 10 ng/ml: 2700 RLU | RUT, TBI assay, K1-70 only 100% (5 ng/ml K1-70): 2420 RUT | RUT, TBI assay, mixture M22:K1-70 10:90: 4000 RUT | RUT, TBI assay, mixture M22:K1-70 20:80: 6470 RUT | RUT, TBI assay, mixture M22:K1-70 30:70: 8650 RUT | RUT, TBI assay, mixture M22:K1-70 40:60: 12300 RUT | RUT, TBI assay, mixture M22:K1-70 50:50: 14600 RUT | RUT, TBI assay, mixture M22:K1-70 60:40: 16700 RUT | RUT, TBI assay, mixture M22:K1-70 70:30: 17600 RUT | RUT, TBI assay, mixture M22:K1-70 80:20: 19600 RUT | RUT, TBI assay, mixture M22:K1-70 90:10: 20400 RUT | sensitivity of TBI bioassay against TRAb assay: > 20 fold
Substance: thyroid blocking monoclonal antibody K1-70

% inhibition, TBI assay, LH 20 mIU/ml in reaction buffer (no K1-70): -5% | % inhibition, TBI assay, LH 40 mIU/ml in reaction buffer (no K1-70): -6% | RLU, TBI assay, LH 20 mIU/ml in reaction buffer (no K1-70): 17300 RLU | RLU, TBI assay, LH 40 mIU/ml in reaction buffer (no K1-70): 17400 RLU
Substance: luteinizing hormone (ligand)

% inhibition, TBI assay, FSH 116.3 mIU/ml in reaction buffer (no K1-70): 0% | % inhibition, TBI assay, FSH 232.6 mIU/ml in reaction buffer (no K1-70): 1% | RLU, TBI assay, FSH 116.3 mIU/ml in reaction buffer (no K1-70): 16500 RLU | RLU, TBI assay, FSH 232.6 mIU/ml in reaction buffer (no K1-70): 16300 RLU
Substance: follicle stimulating hormone (ligand)

% inhibition, TBI assay, hCG 8000 mIU/ml in reaction buffer (no K1-70): -7% | % inhibition, TBI assay, hCG 16000 mIU/ml in reaction buffer (no K1-70): 0% | RLU, TBI assay, hCG 8000 mIU/ml in reaction buffer (no K1-70): 17500 RLU | RLU, TBI assay, hCG 16000 mIU/ml in reaction buffer (no K1-70): 16500 RLU
Substance: human chorionic gonadotropin (from UniProt P01215 25-116; P0DN86 21-165) (ligand)

% inhibition, TBI assay, M22 0.02 ng/ml: 2% | % inhibition, TBI assay, M22 0.04 ng/ml: 0% | % inhibition, TBI assay, M22 0.05 ng/ml: -6% | % inhibition, TBI assay, M22 0.06 ng/ml: -11% | % inhibition, TBI assay, M22 0.08 ng/ml: -21% | % inhibition, TBI assay, M22 0.1 ng/ml: -27% | % inhibition, TBI assay, M22 0.15 ng/ml: -32% | % inhibition, TBI assay, M22 0.2 ng/ml: -52% | % inhibition, TBI assay, M22 0.25 ng/ml: -50% | % inhibition, TBI assay, M22 0.3 ng/ml: -65% | % inhibition, TBI assay, M22 0.35 ng/ml: -63% | % inhibition, TBI assay, M22 0.4 ng/ml: -64% | % inhibition, TBI assay, M22 0.6 ng/ml: -66% | % inhibition, TBI assay, M22 0.8 ng/ml: -73% | % inhibition, TBI assay, M22 1.2 ng/ml: -83% | % inhibition, TBI assay, M22 only 100% (0.8 ng/ml M22): -106% | EC50 of stimulatory activity, TBI assay: 0.16 ng/mL | EC50 of stimulatory activity, TSI assay: 0.14 ng/mL | RLU, TBI assay, M22 0.02 ng/ml: 9070 RLU | RLU, TBI assay, M22 0.04 ng/ml: 9260 RLU | RLU, TBI assay, M22 0.05 ng/ml: 9690 RLU | RLU, TBI assay, M22 0.06 ng/ml: 10100 RLU | RLU, TBI assay, M22 0.08 ng/ml: 10900 RLU | RLU, TBI assay, M22 0.1 ng/ml: 11300 RLU | RLU, TBI assay, M22 0.15 ng/ml: 11700 RLU | RLU, TBI assay, M22 0.2 ng/ml: 13300 RLU | RLU, TBI assay, M22 0.25 ng/ml: 13100 RLU | RLU, TBI assay, M22 0.3 ng/ml: 14300 RLU | RLU, TBI assay, M22 0.35 ng/ml: 14100 RLU | RLU, TBI assay, M22 0.4 ng/ml: 14200 RLU | RLU, TBI assay, M22 0.6 ng/ml: 14400 RLU | RLU, TBI assay, M22 0.8 ng/ml: 15000 RLU | RLU, TBI assay, M22 1.2 ng/ml: 15700 RLU | RUT, TBI assay, M22 only 100% (0.8 ng/ml M22): 21200 RUT | SRR % (TBI), M22 0.02 ng/ml: 61% | SRR % (TBI), M22 0.04 ng/ml: 95% | SRR % (TBI), M22 0.05 ng/ml: 111% | SRR % (TBI), M22 0.06 ng/ml: 122% | SRR % (TBI), M22 0.08 ng/ml: 146% | SRR % (TBI), M22 0.1 ng/ml: 180% | SRR % (TBI), M22 0.15 ng/ml: 236% | SRR % (TBI), M22 0.2 ng/ml: 270% | SRR % (TBI), M22 0.25 ng/ml: 283% | SRR % (TBI), M22 0.3 ng/ml: 302% | SRR % (TBI), M22 0.35 ng/ml: 315% | SRR % (TBI), M22 0.4 ng/ml: 332% | SRR % (TBI), M22 0.6 ng/ml: 368% | SRR % (TBI), M22 0.8 ng/ml: 368% | SRR % (TBI), M22 1.2 ng/ml: 365%
Substance: thyroid stimulating monoclonal antibody M22
